Measurements as given in PMC7573561.

Biological target: Actin (coated on BLI biosensors)
Assay: BLI; Octet RED, 25 C; APS (aminopropylsilane) biosensors coated with 10 ug/mL actin; rPDCP-1 in PBS pH 7.4 with 0.05% Tween 20 and 0.1% BSA; 300 s association, 120 s dissociation

Recombinant PDZ-domain-containing-protein-1 (rPDCP-1) (natural protein)
Kd: 0.783 µM
